# Experimental data taken from IntAct's records for PubMed 11259609.
# B1: Aryl hydrocarbon receptor (Homo sapiens), P35869 (parent)
# chain: MNSSSANITYASRKRRKPVQKTVKPIPAEGIKSNPSKRHRDRLNTELDRLASLLPFPQDVINKLDKLSVLRLSVSYLRAKSFFDVALKSSPTERNGGQDNCRAANFREGLNLQEGEFLLQALNGFVLVVTTDALVFYASSTIQDYLGFQQSDVIHQSVYELIHTEDRAEFQRQLHWALNPSQCTESGQGIEEATGLPQTVVCYNPDQIPPENSPLMERCFICRLRCLLDNSSGFLAMNFQGKLKYLHGQKKKGKDGSILPPQLALFAIATPLQPPSILEIRTKNFIFRTKHKLDFTPIGCDAKGRIVLGYTEAELCTRGSGYQFIHAADMLYCAESHIRMIKTGESGMIVFRLLTKNNRWTWVQSNARLLYKNGRPDYIIVTQRPLTDEEGTEHLRKRNTKLPFMFTTGEAVLYEATNPFPAIMDPLPLRTKNGTSGKDSATTSTLSKDSLNPSSLLAAMMQQDESIYLYPASSTSSTAPFENNFFNESMNECRNWQDNTAPMGNDTILKHEQIDQPQDVNSFAGGHPGLFQDSKNSDLYSIMKNLGIDFEDIRHMQNEKFFRNDFSGEVDFRDIDLTDEILTYVQDSLSKSPFIPSDYQQQQSLALNSSCMVQEHLHLEQQQQHHQKQVVVEPQQQLCQKMKHMQVNGMFENWNSNQFVPFNCPQQDPQQYNVFTDLHGISQEFPYKSEMDSMPYTQNFISCNQPVLPQHSKCTELDYPMGSFEPSPYPTTSSLEDFVTCLQLPENQKHGLNPQSAIITPQTCYAGAVSMYQCQPEPQHTHVGQMQYNPVLPGQQAFLNKFQNGVLNETYPAELNNINNTQTTTHLQPLHHPSEARPFPDLTSSGFL
# partner: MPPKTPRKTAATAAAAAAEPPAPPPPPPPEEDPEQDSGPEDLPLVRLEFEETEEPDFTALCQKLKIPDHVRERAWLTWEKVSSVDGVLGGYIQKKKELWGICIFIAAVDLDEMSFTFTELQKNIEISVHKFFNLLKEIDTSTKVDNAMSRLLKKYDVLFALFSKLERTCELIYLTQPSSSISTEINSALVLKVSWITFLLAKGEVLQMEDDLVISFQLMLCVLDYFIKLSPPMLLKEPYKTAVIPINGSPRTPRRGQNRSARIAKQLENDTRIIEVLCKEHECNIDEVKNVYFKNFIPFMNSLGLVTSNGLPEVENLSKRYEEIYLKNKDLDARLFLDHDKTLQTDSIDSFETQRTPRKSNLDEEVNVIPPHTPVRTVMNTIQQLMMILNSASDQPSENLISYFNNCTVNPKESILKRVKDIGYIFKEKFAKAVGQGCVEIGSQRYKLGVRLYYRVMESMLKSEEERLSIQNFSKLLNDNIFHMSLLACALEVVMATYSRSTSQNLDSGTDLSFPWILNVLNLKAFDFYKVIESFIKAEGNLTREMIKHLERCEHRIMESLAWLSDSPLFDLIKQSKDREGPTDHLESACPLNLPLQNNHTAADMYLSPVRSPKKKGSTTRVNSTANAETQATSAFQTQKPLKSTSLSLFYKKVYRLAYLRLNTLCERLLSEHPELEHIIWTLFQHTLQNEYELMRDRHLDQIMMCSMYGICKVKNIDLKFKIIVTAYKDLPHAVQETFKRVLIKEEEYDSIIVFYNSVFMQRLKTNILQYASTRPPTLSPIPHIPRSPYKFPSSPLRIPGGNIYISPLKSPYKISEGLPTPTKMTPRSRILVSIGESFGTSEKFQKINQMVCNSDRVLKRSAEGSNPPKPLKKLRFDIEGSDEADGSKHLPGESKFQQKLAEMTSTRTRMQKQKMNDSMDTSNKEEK
# Variants of: B1
# Details: with rb_human RB1, P06400
row,effect of a mutation on the interaction,Variant
1,disrupting interaction strength,C333A
2,disrupting interaction strength,E335A
3,disrupting interaction strength,L331A
